Assay results published in patent US20120220489A1.

What was measured:
[1] = molecular target: pRb-BSA 1x peptide-protein conjugate (bovine); assay: RPA, competition: +free H3 peptide 100 nM
[2] = molecular target: ERK1 (p42) active (phospho), human, Active Motif 31 152 (human) (UniProt P27361); assay: RPA, competition: +free H3 peptide 100 nM
[3] = molecular target: ERK1 (p44) active (GST tagged), human, Invitrogen PV 3311 (human) (UniProt P27361); assay: RPA, competition: +free H3 peptide 100 nM
[4] = molecular target: Histone H3-BSA 2.7x peptide-protein conjugate (bovine); assay: RPA, competition: +free H3 peptide 100 nM
[5] = molecular target: ERK2 (p42), human, Biosource PHO 0104 (human) (UniProt P28482); assay: RPA, competition: +free H3 peptide 100 nM
[6] = molecular target: Histone H3 recombinant protein, human, Upstate 14-494 (human) (UniProt P68431); assay: RPA, competition: +free H3 peptide 100 nM
[7] = molecular target: pErk1/2-BSA 2.7x peptide-protein conjugate (human; bovine); assay: RPA, 8 point dilution series of the peptide standard in buffer, assay 1
Chain of pErk1/2-BSA 2.7x peptide-protein conjugate (human; bovine) (P02769 25-607 limits assumed): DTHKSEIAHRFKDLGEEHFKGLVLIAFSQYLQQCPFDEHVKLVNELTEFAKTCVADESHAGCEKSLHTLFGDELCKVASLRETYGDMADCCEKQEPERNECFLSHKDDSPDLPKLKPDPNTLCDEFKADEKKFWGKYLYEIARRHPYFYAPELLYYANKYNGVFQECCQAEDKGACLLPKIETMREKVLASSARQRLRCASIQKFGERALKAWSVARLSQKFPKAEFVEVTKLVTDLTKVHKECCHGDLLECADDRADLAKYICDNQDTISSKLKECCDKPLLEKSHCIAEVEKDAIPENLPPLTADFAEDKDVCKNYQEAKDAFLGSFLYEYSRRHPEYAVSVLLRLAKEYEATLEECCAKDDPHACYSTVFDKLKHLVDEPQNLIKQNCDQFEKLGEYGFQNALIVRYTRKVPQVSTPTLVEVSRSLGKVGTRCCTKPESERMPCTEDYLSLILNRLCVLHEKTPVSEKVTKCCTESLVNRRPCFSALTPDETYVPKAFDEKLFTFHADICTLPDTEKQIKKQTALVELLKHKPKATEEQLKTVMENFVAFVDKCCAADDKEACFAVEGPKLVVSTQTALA

Chain of pRb-BSA 1x peptide-protein conjugate (bovine) (P02769 25-607 limits assumed): as above
Chain of Histone H3-BSA 2.7x peptide-protein conjugate (bovine) (P02769 25-607 limits assumed): as above
Chain of UniProt P28482 (P28482 2-360 limits assumed): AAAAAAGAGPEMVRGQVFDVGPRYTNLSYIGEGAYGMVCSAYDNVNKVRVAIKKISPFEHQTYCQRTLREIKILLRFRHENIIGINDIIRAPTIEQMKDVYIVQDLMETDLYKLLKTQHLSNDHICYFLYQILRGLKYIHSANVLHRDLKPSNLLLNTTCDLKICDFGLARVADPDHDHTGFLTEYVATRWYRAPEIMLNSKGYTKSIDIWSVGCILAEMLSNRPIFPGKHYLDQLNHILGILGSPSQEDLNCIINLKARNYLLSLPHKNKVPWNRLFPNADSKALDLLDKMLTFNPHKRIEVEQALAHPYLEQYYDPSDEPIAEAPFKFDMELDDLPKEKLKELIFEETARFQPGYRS

Row | Substance | maximum standard curve signal [1] [RFI] | maximum standard curve signal [2] [RFI] | maximum standard curve signal [3] [RFI] | maximum standard curve signal [4] [RFI] | maximum standard curve signal [5] [RFI] | maximum standard curve signal [6] [RFI] | mean signal (standard curve) [7] [RFI]
1 | Histone H3 antibody, Abcam ab1791 | < 0.01 | < 0.01 | < 0.01 | 3.33 | < 0.01 | 4.45 | 
2 | p44/42 MAPK (Erk1/2) antibody, Biosource 44-654G |  |  |  |  |  |  | 0.01
